From CN109957013A
“And” between values parts separate entries of the source, which are not always exact repeats. Identical values can stand only once.

B1: 抗H7N9全人源单克隆抗体7O2 (antibody, V domains shown)
VH: EVQLVESGGGLVQPGGSLRLSCAASGFTFSSYWMHWVRQAPGKGLVWVSRINSDGSSTSYADSVKGRFTISRDNAKNTLYLQMNSLRAEDTAVYYCARRSKTGKFDPWGQGTLVTVSS
VL: SYELTQPPSVSVSPGQTARITCSGDALPKQYAYWYQQKPGQAPVLVIYKDSERPSGIPERFSGSSSGTTVTLTISGVQAEDEADYYCQSADSSGTLEVFGGGTKLTVLV

Experiments:
H7N9病毒的血凝素HA (H7N9病毒) [1] = test: ELISA, positive control well
H7N9病毒的血凝素HA (H7N9病毒) [2] = test: ELISA of 293F supernatant with recombinant 7O2

| Molecule | 450 (absorbance at 450 nm) (H7N9病毒的血凝素HA (H7N9病毒) [1]) | 450 (absorbance at 450 nm) (H7N9病毒的血凝素HA (H7N9病毒) [2]) |
| --- | --- | --- |
| 阳性对照 | 1.15 (2×) and 1.21 |  |
| B1 |  | 3 and 3.12 and 2.96 |
